The values below come from the nanobody polyreactivity screen of Harvey et al. (2022).

The nature of the series: yeast display, Sf9 membrane polyspecificity reagent, FACS + sequencing; frameworks hold sequencing errors. A digest of the protocol: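 Galactose-induced (36–48 hours) yeast carrying a synthetic nanobody display library were exposed to 10% biotinylated, detergent-solubilized Sf9 membrane reagent at 4 °C for 1 hour. FACS followed streptavidin microbead enrichment, using low and high (top ~1%) gates for expression (anti-HA) and reagent binding (streptavidin). Colony PCR, MiSeq 2 × 250 sequencing and CDR-length filtering followed. Labels for polyreactivity reflect the gate of origin.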
Regarding “QVQLVESGGGLVQAGGSLRLSCAASGSTFTTNAMGWYSQAPGKERELVATISGGGSTYYADSVKGRFTISRDNAKNTVYLQMNSLKPEDTAVYYCATDVQVPGIGRSVYAYEYWGQGTQVTVSS”, the “polyreactivity (PSR sort gate)” value was “low polyreactivity”.

For “QVQLVESGGGLVQAGGSLRLSCAASGSTFTTYAMGWYRQAPGKERELVAAISRTGGVTYYADTVKGRFTISRDNGKKTVYLQMNSLKPDDTAVYYCNAGLFRGAQFDYWGLGTQVTVSS”, the “polyreactivity (PSR sort gate)” value is “high polyreactivity”.

Consider “QVQLVESGGGLVQAGGSLRLSCAASGSTFTVNCMGWYRQAPGKERELVASITWSGGSTYYADSVKGRFTISRDNAKNTVYFQMNSLKPEDTAVYYCAADEKLYITGYDYWGQGTQVTVSS”, for which the “polyreactivity (PSR sort gate)” value is “low polyreactivity”.

Consider “QVQLVESGGGLVQAGGSLRLSCAASGSTFTVNDMGWYRQAPGKERELVAAITQRDGRTFYADSVKGRFTISRDNAKNTVYLQMNSLKPEDTAVYYCAATFIQVVVNVQLYDYDYWGQGTQVTVSS”, for which the “polyreactivity (PSR sort gate)” value was “low polyreactivity”.

As for “QVQLVESGGGLVQAGGSLRLSCAASGSTFTVNGMGWYRQAPGKERELVASITWSGGSTYYADSVKGRFTISRDNAKNTVYLQLNSLKPEDTAVYYCNAVDTRVPSIRFDYWGQRTQVTVSS”, the “polyreactivity (PSR sort gate)” value is recorded as “low polyreactivity”.

As to “QVQLVESGGGLVQAGGSLRLSCAASGSTFTVNGMGWYRQATGKESELVAAIDGGDGSTYYADSVKGRFTISRDNAKNTVYLQMNSLKPEDTAVYYCAADPPGFTQYGYWGQGTQVTVSS”, the “polyreactivity (PSR sort gate)” value is on record as “low polyreactivity”.

Take “QVQLVESGGGLVQAGGSLRLSCAASGSTFTVYAMGWYRQAPGKERELVAAISSSTGSTYYADSVKGRFTISRDNAKNTVYLQMNSLKPEDTAVSYCAADVYHVTTSSYTEFEYWGQGTQVTVSS”: the “polyreactivity (PSR sort gate)” value is on record as “low polyreactivity”.

For “QVQLVESGGGLVQAGGSLRLSCAASGSTFTVYAMGWYRQAPGKERELVAAISWSGGSTYYADSVKGRFTISRDNAKNTVYLQMNSLKPEDTAVYYCAVVIYWRTGEYDYWGQGTQVTVSS”, the “polyreactivity (PSR sort gate)” value is listed as “low polyreactivity”.

“QVQLVESGGGLVQAGGSLRLSCAASGSTFTVYAMGWYRQAPGKERELVAGISSGGSTYYADSVKGRFTISRDNAKNTVYLQMNSLKPEDTAVYYCAALRVRVPLGTYGYWGQVTQVTVSS”: the “polyreactivity (PSR sort gate)” value is recorded as “high polyreactivity”.

For the sequence “QVQLVESGGGLVQAGGSLRLSCAASGSTFTWYAMGWYRQAPGKEGELVAAISRGGSTNYADSVKGRFTISRDNAKNTVYLQMNSLKPEDTAVYYCAAESYWRDDYWGQGTQVTVSS”, the “polyreactivity (PSR sort gate)” value is “low polyreactivity”.

On to “QVQLVESGGGLVQAGGSLRLSCAASGSTFTYNAMGWYRQAPGKERELVAAIRSNGGSTYYADSVKGRFTISRDNAKNTVYLQMNSLKPEDTAVYYCAARLSVLGGYRGRNAWRFDHWGLGTQVTVSS”, for which the “polyreactivity (PSR sort gate)” value was “high polyreactivity”.

“QVQLVESGGGLVQAGGSLRLSCAASGSTFTYNTLVWYRQAPGKERELVAAISWGGGGTYYADSVKGRFTISRDNAKNTVYLQMNSLKPEDTAVYYCNADPWWDYGTFDYWGQGTQVTVSS”: the “polyreactivity (PSR sort gate)” value is “low polyreactivity”.

Take “QVQLVESGGGLVQAGGSLRLSCAASGSTFTYYDMGWYRQAPGKERELVATIDSTTRTYYADSVKGRFTISRDNAKNTVYLQMNSLKPEDTAVYYCAADLTWAYFYYLFYRYDYWGQGTQVTVSS”: the “polyreactivity (PSR sort gate)” value is given as “low polyreactivity”.

Regarding “QVQLVESGGGLVQAGGSLRLSCAASGSTFTYYTMAWYRQAPGKERELVAAISWSGGRTYYADSVKGRFTISRDNAKNTVYLQMNSLKPEDTAVYYCAAGPAPGHDSWGQGTQVTVSS”, the “polyreactivity (PSR sort gate)” value is recorded as “high polyreactivity”.

Take “QVQLVESGGGLVQAGGSLRLSCAASGSTFVANAMGWYIQAPGKERELVAAISFNRGGNTYYADSVKGRFTISRDNAKNTVYLQMNSLKPEDTAVYYCAAAQRELPTVRRNYWGQGTQVTVSS”: the “polyreactivity (PSR sort gate)” value is recorded as “high polyreactivity”.

Regarding “QVQLVESGGGLVQAGGSLRLSCAASGSTFVANAMGWYRQAPGKERELVAAISGAGGGTYYADSVKGRFTISRDNAKNTVYLQMNSLKPEDTAVYYCAAVPWYYYHYWVSHPYGGDYWGQGTQVTVSS”, the “polyreactivity (PSR sort gate)” value was “low polyreactivity”.

On to “QVQLVESGGGLVQAGGSLRLSCAASGSTFVAYAKGWYRQAPGKETEWDASISGSGGTTNYADSVKGRFTISRDNAKNTVYLQMNSLKPEDTAVYYCARRYYSVKSRYALNSWGQGTQVTVSS”, for which the “polyreactivity (PSR sort gate)” value is on record as “high polyreactivity”.

With “QVQLVESGGGLVQAGGSLRLSCAASGSTFVAYAMGWYRQAPGKERELVAAITYSGGRTYYADSVKGRFTISRDNAKNTVYLQMNSLKPEDTAVYSCAATGVFRDEYWGQGTQVTVSS”, the “polyreactivity (PSR sort gate)” value is recorded as “low polyreactivity”.

For the sequence “QVQLVESGGGLVQAGGSLRLSCAASGSTFVDYAMGWYRPAPGKERELVAAINSDGGGTYYADSVKGRFTISRDNAKNTVYLQMNSLKPEDTAVYYCAAVGYTTYRRYDYWGQGTQVTVSS”, the “polyreactivity (PSR sort gate)” value is reported as “low polyreactivity”.

As to “QVQLVESGGGLVQAGGSLRLSCAASGSTFVFYAMGWYRQAPGKERELVAGISDSGGNTYYADSVKGRFTISRDNAKNTVYLQMNSLKPEDTAVYYCATRYPYYPFYVGIYELDYWGQGTQVTVSS”, the “polyreactivity (PSR sort gate)” value is “low polyreactivity”.

“QVQLVESGGGLVQAGGSLRLSCAASGSTFVFYAMGWYRQAPRKERELVAAITIGGSTYADSVKGRFTISRDNAKNTVYLQMNSLNPEDTAVYYCNADDAPSSFTTLDFTFDYWGQGTQVTVSS”: the “polyreactivity (PSR sort gate)” value is “low polyreactivity”.

Take “QVQLVESGGGLVQAGGSLRLSCAASGSTFVFYTMGWYRQAPGKEREFVASISGSGGSTYYADSVKGRFTISRDNAKNTVYLQMNSLKPEDTAVYYCGAGYPYYYWTPYYYWGQGTQVTVSS”: the “polyreactivity (PSR sort gate)” value is “high polyreactivity”.

Turning to “QVQLVESGGGLVQAGGSLRLSCAASGSTFVGNAMGCYRQAPVKERELVATISNSGGHTFYADSVKGRFTISRDNAKNTVYLQMNSLKPEDTAVFYCAASTSGAIRRDGYWGQGTQVTVSS”, the “polyreactivity (PSR sort gate)” value is reported as “low polyreactivity”.

For “QVQLVESGGGLVQAGGSLRLSCAASGSTFVGNAMGWYRQAPGKERELVAAISRTGGSTYYADSVKGRFTISRDNAKNTVYLQMNSLKPEDTAVYYCNAYTRYSSRRGIGDYWGQGTQVTVSS”, the “polyreactivity (PSR sort gate)” value is given as “high polyreactivity”.

As for “QVQLVESGGGLVQAGGSLRLSCAASGSTFVGNAMGWYRQAPGKERELVAAITGGGGSTYYADSVKGRFTISRDNAKNTVYLQMNSLKPEDTAVYSCARDRTDYYVWYVRYYYWGQGTQVTVSS”, the “polyreactivity (PSR sort gate)” value is listed as “low polyreactivity”.

As for “QVQLVESGGGLVQAGGSLRLSCAASGSTFVGNAMGWYRQAPGKERELVAGITSSGTSTYYADSVKGRFTMSRDNAKNSVYLQMNRLKPEDTAVYYCATDDADESYGFELFDYWGLGTQVTVSS”, the “polyreactivity (PSR sort gate)” value is “low polyreactivity”.

Regarding “QVQLVESGGGLVQAGGSLRLSCAASGSTFVHNGMGWYRQAPGIDRELVGAITDGGSTYYADSVKGRFTISRDNAKNTVYLQMNSLKPEDTAVYYCAAGYSRYGYFRGYRYYYWGQGTQVTVSS”, the “polyreactivity (PSR sort gate)” value is “low polyreactivity”.

Consider “QVQLVESGGGLVQAGGSLRLSCAASGSTFVHYAMGWYRQAPGKERELVAAITISGGRTYYADSVKGRFTISRDNAKNTVYLQMNSLKPEDTAVYYCNADHYHRTWGYDYWGQGTQVTVSS”, for which the “polyreactivity (PSR sort gate)” value is listed as “low polyreactivity”.

Turning to “QVQLVESGGGLVQAGGSLRLSCAASGSTFVINAMGWYRQAPGKERELVAAISFSGDTTYYADSVKGRFTISRDNAKNTVYLQMNSLKPEDTAVYYCAASVTVGISKYGYWGQGTQVTVSS”, the “polyreactivity (PSR sort gate)” value is “high polyreactivity”.

For the sequence “QVQLVESGGGLVQAGGSLRLSCAASGSTFVINAMGWYRQAPGKERELVAAISYSGDSTYADSVKGRFTISRDNEKNTVYLQMNSLKPEDTAVYYCAKYQYDYYTYDYWGQGTQVTVSS”, the “polyreactivity (PSR sort gate)” value is on record as “low polyreactivity”.

For “QVQLVESGGGLVQAGGSLRLSCAASGSTFVINAMGWYRQAPGKERELVADIDYRGGSTNYADSVKGRFTISRDNAKNTVYLLMNSLKPEDTAVYYCNKRYVIRRRGYDYWGQGTQVTVSS”, the “polyreactivity (PSR sort gate)” value is given as “low polyreactivity”.

Turning to “QVQLVESGGGLVQAGGSLRLSCAASGSTFVINDMGWYRQAPGKERELVAAITWGSGSTYYADSVKGRFTISRDNAKNTVYLQMNSLKPEDTAVYYCAADVYFGLVGYYAEYNDYWGQGTQVNVSS”, the “polyreactivity (PSR sort gate)” value is “low polyreactivity”.

As to “QVQLVESGGGLVQAGGSLRLSCAASGSTFVIYAMGWYRQAPGKERELVAAIRLGGGSTYYADSVKGRFTISRDNANNTVYLQMNSLKPEDTAVYYCAAEVDQWYYRGYDYWGQGTQVTVSS”, the “polyreactivity (PSR sort gate)” value was “high polyreactivity”.

Consider “QVQLVESGGGLVQAGGSLRLSCAASGSTFVIYAMGWYRQAPGKERELVAAITISGGRTYYADSVKGRFTISRDNAKNTVYLQMNSLKPEDTAVYYCAATVVSTYPYGYGSTFVRDDYWGQGTQVTVSS”, for which the “polyreactivity (PSR sort gate)” value is reported as “low polyreactivity”.

Turning to “QVQLVESGGGLVQAGGSLRLSCAASGSTFVIYGMGLYRQEPGKESDIVADITWIGGSTYYADSVKGRFTISRDNAKNTVYLQMKSLKPEDTAVYYCAADAAYLYLYNWYDTEDYYWGQGTLVTVSS”, the “polyreactivity (PSR sort gate)” value is recorded as “low polyreactivity”.

Consider “QVQLVESGGGLVQAGGSLRLSCAASGSTFVIYGMGWYRQAPGTERELVADITWIGGSTYYADSVKGRFTISRDNAKNTVYLQMNSLKPEDTAVYYCNADVRYGRDHWGQGTQVTVSS”, for which the “polyreactivity (PSR sort gate)” value is given as “low polyreactivity”.

On to “QVQLVESGGGLVQAGGSLRLSCAASGSTFVIYTMGWCRQAPGKERELVAAISWSGGITRYADSVKGRFTISRDNAKNTVYLQMNSLKPEDTAVYYCNASQWPSLFDYWGQGTQVTVSS”, for which the “polyreactivity (PSR sort gate)” value is given as “low polyreactivity”.

For the sequence “QVQLVESGGGLVQAGGSLRLSCAASGSTFVNYVMGWYRQAPGKERELVAAISRRGTSTRYADSVKGRFTISRDNAKNTVYLQMNSLKPEDTAVYYCAATRYVGVTGYGYWGQGTQVTVSS”, the “polyreactivity (PSR sort gate)” value is given as “high polyreactivity”.

Take “QVQLVESGGGLVQAGGSLRLSCAASGSTFVPNAMGWYRQAPGKERELVAAISRSAGSTYYADSVKGRFTISRDNAKNTVYLQMNSLKPEDTAVYYCAAVSLTYIAYDYWGQGTQVTVSS”: the “polyreactivity (PSR sort gate)” value is given as “high polyreactivity”.

As to “QVQLVESGGGLVQAGGSLRLSCAASGSTFVPYAMGWYRQAPGKERELVAAISQSGGSTYYADSVKGRYTISRDNAKNTVYLQMTSLKPEYTAVYYCNVDQFRYPEYDYWGQGTQVTVSS”, the “polyreactivity (PSR sort gate)” value is reported as “high polyreactivity”.
